The text below walks through data of patent publication US20150118239A1 (GEORG AUGUST UNIVERSIT T G TTINGEN STIFTUNG FFENTLICHEN …, published 2015).

Test [1] deals with α-Synuclein aggregates (Lewy bodies, Lewy neurites, glial cytoplasmic inclusions) (human, UniProt P37840 1-140). Description: IHC, brain sections of non-AD neurodegenerative disorders.
The target of test [2] is T1, Phospho-Tau aggregates (tufted astrocytes in PSP, Pick bodies in PiD) (human, UniProt P10636-8 2-441, limits assumed, phosphorylated, sites not stated).
T1 construct: Tissue aggregates in patients' brain sections; also called pTau
Described as above.

The target in test [3] is T2, Prion protein (PrP) deposits (human, UniProt P04156 23-230).
T2 construct: also called PrP immunopositive amyloid plaques, synaptic, plaque-like and perineuronal deposits
Described as above.

Test [4] has as its target T3, Phospho-TDP-43 neuronal cytoplasmic and neuritic deposits (human, UniProt Q13148 1-414, limits assumed, phosphorylated, sites not stated).
T3 construct: Tissue aggregates in patients' brain sections
The description is as above.

Test [5] deals with T4, AβpE3-42 low molecular weight (LMW) oligomers (human, N-terminal pyroglutamate at Aβ position 3 (pE3)).
T4 construct: otherwise only LMW oligomers
Description: native Western blot, sensitivity test.

Test [6] concerns the target T5, Aβ4-42 low molecular weight (LMW) oligomers (human).
T5 construct: otherwise only LMW oligomers; also called Aβ4-42 oligomers
Description: native Western blot, sensitivity test.

In a further test the target is T6, Aβ4-10 (human).
T6 construct: Screening peptide of the hybridoma ELISA
T6 peptide: FRHDSGY
Description: hybridoma screening ELISA.

For the next test, the target named is T7, Aβ36-40 (human).
T7 construct: Counter-screening peptide of the hybridoma ELISA
T7 peptide: VGGVV
Description: hybridoma screening ELISA.

For the next test, the target named is AβpE3-42 (human, N-terminal pyroglutamate at Aβ position 3 (pE3)). In words: cell-based or functional assay.
The next test has as its target Aβ4-42 (human). In words: cell-based or functional assay.
Test [7] deals with Aβ4-40 (human). Description: cell-based or functional assay.
In test [8] the target is Aβ4-38 (human). Description: cell-based or functional assay.
In a further test the target is T8, Aβ2-17 (human).
T8 construct: Pepscan 16-mer
T8 peptide: AEFRHDSGYEVHHQKL
Description: pepscan ELISA, coated 16-mer peptides, antibody 7 µg/ml.

The target in another test is T9, Aβ4-19 (human).
T9 construct: Pepscan 16-mer
T9 peptide: FRHDSGYEVHHQKLVF
The description is as above.

Another test addresses T10, Aβ3-18 (human).
T10 construct: Pepscan 16-mer
T10 peptide: EFRHDSGYEVHHQKLV
Described as above.

In a further test the target is T11, Aβ5-20 (human).
T11 construct: Pepscan 16-mer
T11 peptide: RHDSGYEVHHQKLVFF
In words: pepscan ELISA.

Test [9] has as its target T12, Aβ4-40 (human).
T12 construct: Synthetic peptide, the immunogen
Description: native Western blot, equal amounts of freshly dissolved peptides.

Test [10] deals with T13, Aβ4-38 (human).
T13 construct: Synthetic peptide
The description is as above.

B1: NT4X-167 (antibody, V domains shown)
VH: QVQLKQSGPGLVQPSQSLSITCTVSGFSLTSYGIHWVRQSPGKGLEWLGVMWSGGITDFYAAFISRLSISRDISKSQVFFKMNSLQADDTAIYYCARGSRYALDYWGQGTSVSVSS
VL: DIQMTQTTSSLSASLGDRVTISCRASQDISNYLNWYQQKPDGTVKLLIYYTSRLHSGVPSRFSGSGSGTDYSLTISNLEQEDIATYFCQQGNTLPPTFGGGTKLEIK
notes: also called NT4X-67
With B1, the binding result in [1] was “no binding”; in [2] it was “no binding”; in [3], “no binding”; in test [4] it was “no binding”; with Aβ4-10, “binds”; with Aβ36-40 it was “no binding”. In addition, the “peptide amount giving similar signal intensity” value in test [5] and in [6] was 70 ng in each case. The “viability of SH-SY5Y cells (MTS), aged 10 µM peptide with against without antibody” value in the test with AβpE3-42 was below 0.05 p value; with Aβ4-42, below 0.01 p value; with Aβ4-40 [7], below 0.01 p value; with Aβ4-38 [8], below 0.01 p value.

B2: NT4X-83 (antibody, V domains shown)
VH: EVHLQQSGAELVKPGASVKLSCTASGFNIRDTYIHWVKQRPEQGLEWIGRVDPANGNTKYDPKFQGKATITADTSSDTAYLQLSSLTAEDTAVYFCARRIYYGYALFAYWGQGTLVTVSA
VL: DIVMTQSPSSLTVTAGEKVTMSCKSSQSLLNSGNQKNYLTWYQQKPGQPPKLLIYWASTRESGVPDRFTGSGSGTDFTLTISSVQAEDLAVYYCQNDYSYPLTFGAGTKLELK
notes: also called Aβ4-40 NT4X-83; DSM ACC3161
B2: the binding result in [1] is “no binding”; in [2] it was “no binding”; in [3] it was “no binding”; in test [4], “no binding”; with Aβ2-17, “binds”; with Aβ4-19, “binds”. Besides, the binding result was “binds” with Aβ3-18; “binds” with Aβ4-10; “no binding” with Aβ36-40; “no binding (tested: 7 µg/ml)” with Aβ5-20; “binds” in the test with Aβ4-40 [9]; “binds” with Aβ4-38 [10]. Besides, the “peptide amount giving similar signal intensity” value in [5] and in [6] was 500 ng in each case.
